These results are taken from patent publication US20240092934A1 (FAMEWAVE, published 2024).

The labels stand for the following.
B1: humanized anti-CEACAM-1 variant VH4/VK1, IgG4 (S241P) (antibody, V domains shown)
VH: QVQLVQSGAEVKKPGASVKVSCKASGYAFTNNLIEWVRQAPGQGLEWIGVINPGSGDTNYNEKFKGRATLTADKSISTAYMELSRLRSDDTAVYYCARGDYYGGFAVDYWGQGTTVTVSS
VL: DIQMTQSPSSLSASVGDRVTITCRTSQDIGNYLNWYQQKPGKAVKLLIYYTSRLHSGVPSRFSGSGSGTDYTLTISSLQQEDIATYFCQQGKSLPRTFGGGTKVEIK
notes: Tested as human IgG4 (S241P) / kappa antibody; only the variable regions are tied to this variant
B2: humanized anti-CEACAM-1 variant VH3/VK2, IgG4 (S241P) (antibody, V domains shown)
VH: QVQLVQSGAEVKKPGASVKVSCKASGYAFTNNLIEWVRQAPGQGLEWIGVINPGSGDTNYNEKFKGRATLTADKSINTAYMELSRLRSDDTAVYYCARGDYYGGFAVDYWGQGTTVTVSS
VL: DIQMTQSPSSLSASVGDRVTITCRTSQDIGNYLNWYQQKPGKAVKLLIYYTSRLHSGVPSRFSGSGSGTDYTLTISSLQPEDIATYFCQQGKSLPRTFGGGTKVEIK
notes: as for B1
B3: humanized anti-CEACAM-1 variant VH5/VK2, IgG4 (S241P) (antibody, V domains shown)
VH: QVQLVQSGAEVKKPGASVKVSCKASGYAFTNNLIEWVRQAPGQGLEWIGVINPGSGDTNYNEKFKGRVTMTADKSISTAYMELSRLRSDDTAVYYCARGDYYGGFAVDYWGQGTTVTVSS
VL: DIQMTQSPSSLSASVGDRVTITCRTSQDIGNYLNWYQQKPGKAVKLLIYYTSRLHSGVPSRFSGSGSGTDYTLTISSLQPEDIATYFCQQGKSLPRTFGGGTKVEIK
notes: as for B1
B4: humanized anti-CEACAM-1 variant VH5/VK1, IgG1 (antibody, V domains shown)
VH: QVQLVQSGAEVKKPGASVKVSCKASGYAFTNNLIEWVRQAPGQGLEWIGVINPGSGDTNYNEKFKGRVTMTADKSISTAYMELSRLRSDDTAVYYCARGDYYGGFAVDYWGQGTTVTVSS
VL: DIQMTQSPSSLSASVGDRVTITCRTSQDIGNYLNWYQQKPGKAVKLLIYYTSRLHSGVPSRFSGSGSGTDYTLTISSLQQEDIATYFCQQGKSLPRTFGGGTKVEIK
notes: Tested as human IgG1 / kappa antibody; only the variable regions are tied to this variant
B5: humanized anti-CEACAM-1 variant VH5/VK3, IgG1 (antibody, V domains shown)
VH: QVQLVQSGAEVKKPGASVKVSCKASGYAFTNNLIEWVRQAPGQGLEWIGVINPGSGDTNYNEKFKGRVTMTADKSISTAYMELSRLRSDDTAVYYCARGDYYGGFAVDYWGQGTTVTVSS
VL: DIQMTQSPSSLSASVGDRVTITCRTSQDIGNYLNWYQQKPGKAVKLLIYYTSRLHSGVPSRFSGSGSGTDYTFTISSLQPEDIATYFCQQGKSLPRTFGGGTKVEIK
notes: as for B4
B6: humanized anti-CEACAM-1 variant VH4/VK3, IgG1 (antibody, V domains shown)
VH: QVQLVQSGAEVKKPGASVKVSCKASGYAFTNNLIEWVRQAPGQGLEWIGVINPGSGDTNYNEKFKGRATLTADKSISTAYMELSRLRSDDTAVYYCARGDYYGGFAVDYWGQGTTVTVSS
VL: DIQMTQSPSSLSASVGDRVTITCRTSQDIGNYLNWYQQKPGKAVKLLIYYTSRLHSGVPSRFSGSGSGTDYTFTISSLQPEDIATYFCQQGKSLPRTFGGGTKVEIK
notes: as for B4
B7: humanized anti-CEACAM-1 variant VH4/VK3, IgG4 (S241P) (antibody, V domains shown)
VH: QVQLVQSGAEVKKPGASVKVSCKASGYAFTNNLIEWVRQAPGQGLEWIGVINPGSGDTNYNEKFKGRATLTADKSISTAYMELSRLRSDDTAVYYCARGDYYGGFAVDYWGQGTTVTVSS
VL: DIQMTQSPSSLSASVGDRVTITCRTSQDIGNYLNWYQQKPGKAVKLLIYYTSRLHSGVPSRFSGSGSGTDYTFTISSLQPEDIATYFCQQGKSLPRTFGGGTKVEIK
notes: as for B1
B8: humanized anti-CEACAM-1 variant VH5/VK2, IgG1 (antibody, V domains shown)
VH: QVQLVQSGAEVKKPGASVKVSCKASGYAFTNNLIEWVRQAPGQGLEWIGVINPGSGDTNYNEKFKGRVTMTADKSISTAYMELSRLRSDDTAVYYCARGDYYGGFAVDYWGQGTTVTVSS
VL: DIQMTQSPSSLSASVGDRVTITCRTSQDIGNYLNWYQQKPGKAVKLLIYYTSRLHSGVPSRFSGSGSGTDYTLTISSLQPEDIATYFCQQGKSLPRTFGGGTKVEIK
notes: as for B4
B9: humanized anti-CEACAM-1 variant VH5/VK1, IgG4 (S241P) (antibody, V domains shown)
VH: QVQLVQSGAEVKKPGASVKVSCKASGYAFTNNLIEWVRQAPGQGLEWIGVINPGSGDTNYNEKFKGRVTMTADKSISTAYMELSRLRSDDTAVYYCARGDYYGGFAVDYWGQGTTVTVSS
VL: DIQMTQSPSSLSASVGDRVTITCRTSQDIGNYLNWYQQKPGKAVKLLIYYTSRLHSGVPSRFSGSGSGTDYTLTISSLQQEDIATYFCQQGKSLPRTFGGGTKVEIK
notes: as for B1
B10: humanized anti-CEACAM-1 variant VH5/VK3, IgG4 (S241P) (antibody, V domains shown)
VH: QVQLVQSGAEVKKPGASVKVSCKASGYAFTNNLIEWVRQAPGQGLEWIGVINPGSGDTNYNEKFKGRVTMTADKSISTAYMELSRLRSDDTAVYYCARGDYYGGFAVDYWGQGTTVTVSS
VL: DIQMTQSPSSLSASVGDRVTITCRTSQDIGNYLNWYQQKPGKAVKLLIYYTSRLHSGVPSRFSGSGSGTDYTFTISSLQPEDIATYFCQQGKSLPRTFGGGTKVEIK
notes: as for B1
B11: humanized anti-CEACAM-1 variant VH4/VK2, IgG4 (S241P) (antibody, V domains shown)
VH: QVQLVQSGAEVKKPGASVKVSCKASGYAFTNNLIEWVRQAPGQGLEWIGVINPGSGDTNYNEKFKGRATLTADKSISTAYMELSRLRSDDTAVYYCARGDYYGGFAVDYWGQGTTVTVSS
VL: DIQMTQSPSSLSASVGDRVTITCRTSQDIGNYLNWYQQKPGKAVKLLIYYTSRLHSGVPSRFSGSGSGTDYTLTISSLQPEDIATYFCQQGKSLPRTFGGGTKVEIK
notes: as for B1
B12: humanized anti-CEACAM-1 variant VH4/VK2, IgG1 (antibody, V domains shown)
VH: QVQLVQSGAEVKKPGASVKVSCKASGYAFTNNLIEWVRQAPGQGLEWIGVINPGSGDTNYNEKFKGRATLTADKSISTAYMELSRLRSDDTAVYYCARGDYYGGFAVDYWGQGTTVTVSS
VL: DIQMTQSPSSLSASVGDRVTITCRTSQDIGNYLNWYQQKPGKAVKLLIYYTSRLHSGVPSRFSGSGSGTDYTLTISSLQPEDIATYFCQQGKSLPRTFGGGTKVEIK
notes: as for B4

This experiment deals with T1, recombinant human CEACAM-1 (R&D Systems cat. no. 2244-CM-050) (human, UniProt P13688 35-428).
T1 construct: Coated on the ELISA plate at 0.5 ug/ml
T1 sequence (looked up): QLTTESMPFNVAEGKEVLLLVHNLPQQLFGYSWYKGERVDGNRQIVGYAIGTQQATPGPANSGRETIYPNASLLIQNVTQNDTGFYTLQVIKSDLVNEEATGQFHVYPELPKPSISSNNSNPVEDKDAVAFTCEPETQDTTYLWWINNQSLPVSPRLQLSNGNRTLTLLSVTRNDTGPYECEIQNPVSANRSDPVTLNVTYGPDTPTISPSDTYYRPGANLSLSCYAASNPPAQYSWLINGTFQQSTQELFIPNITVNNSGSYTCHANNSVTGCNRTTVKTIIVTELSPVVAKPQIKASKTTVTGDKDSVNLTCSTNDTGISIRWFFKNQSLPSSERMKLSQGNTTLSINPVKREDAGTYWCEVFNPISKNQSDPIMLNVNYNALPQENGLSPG
The experiment is described as follows: competition ELISA on coated recombinant human CEACAM-1; competitor biotinylated chimeric CM-10 IgG1. An excerpt:
The binding of the biotinylated antibody was detected with streptavidin-HRP (Sigma cat. no. S5512) and TMB substrate (Invitrogen cat. no. 00-2023). The reaction was stopped with 3M HC1, absorbance read at 450 nm on a Dynex Technologies MRX TC II plate reader and the binding curves plotted.
A general note: ELISA stands for enzyme-linked immunosorbent assay.
Usually IC50 stands for the point on the concentration scale where inhibition reaches its midpoint. As for B1, the 50% inhibitory concentration (IC50) stood at 0.69 µg/mL and the “IC50 normalized to CM-10” value was 1.15 ratio to IC50 of chimeric CM-10.
In the case of B2, the IC50 is 0.77 µg/mL and the “IC50 normalized to CM-10” value is 1.26 ratio to IC50 of chimeric CM-10.
Taken in the same sequence, the figures for B3 were 0.7 µg/mL and 1.16 ratio to IC50 of chimeric CM-10.
B4: the IC50 turned out to be 0.77 µg/mL and the “IC50 normalized to CM-10” value was 1.17 ratio to IC50 of chimeric CM-10.
Regarding B5, the IC50 is 0.74 µg/mL and the “IC50 normalized to CM-10” value was 1.12 ratio to IC50 of chimeric CM-10.
The matching figures for B6: 0.99 µg/mL and 1.56 ratio to IC50 of chimeric CM-10.
In the case of B7, the concentration for half-maximal inhibition (IC50) stood at 0.63 µg/mL and the “IC50 normalized to CM-10” value is 1.06 ratio to IC50 of chimeric CM-10.
The matching figures for B8: 0.72 µg/mL and 1.09 ratio to IC50 of chimeric CM-10.
Turning to B9, the IC50 was 0.74 µg/mL and the “IC50 normalized to CM-10” value was 1.23 ratio to IC50 of chimeric CM-10.
With B10, the 50% inhibitory concentration (IC50) was 0.7 µg/mL and the “IC50 normalized to CM-10” value is 1.17 ratio to IC50 of chimeric CM-10.
B11: the IC50 is 0.69 µg/mL and the “IC50 normalized to CM-10” value was 1.17 ratio to IC50 of chimeric CM-10.
For the molecule B12, the IC50 was found to be 0.78 µg/mL and the “IC50 normalized to CM-10” value is 1.24 ratio to IC50 of chimeric CM-10.
